The IC50 is the concentration needed to halve the response being measured.

One assay has as its target T1, CD74 (UniProt P04233 1-296).
T1 construct: whole, on cells; Target of HuMab-CD74-011
T1 sequence (looked up): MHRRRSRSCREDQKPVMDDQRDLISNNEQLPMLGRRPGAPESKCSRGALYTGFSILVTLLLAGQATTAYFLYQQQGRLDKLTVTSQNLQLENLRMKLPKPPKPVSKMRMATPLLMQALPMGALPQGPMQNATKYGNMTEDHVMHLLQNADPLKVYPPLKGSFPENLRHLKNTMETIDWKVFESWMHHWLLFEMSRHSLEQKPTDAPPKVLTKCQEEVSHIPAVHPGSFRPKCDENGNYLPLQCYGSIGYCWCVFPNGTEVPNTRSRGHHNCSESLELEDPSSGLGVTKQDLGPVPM
Nature of the assay: FACS competition, Daudi cells; fold vs unmasked HuMab-CD74-011. The procedure:
(§1) To evaluate cell binding of masked antibodies, 2×10⁵ of indicated cells (Raji, Ramos, PC3, Daudi) were combined with fluorescently labeled parent antibody mixed with serial dilutions of competitor (masked antibody) in staining buffer (PBS, 2% FBS, 0.2% NaN3). Samples were incubated for 1 hour on ice and washed twice with ice-cold staining buffer. Labeled cells were examined by flow cytometry on a BD LSRII gated to exclude nonviable cells and analyzed using Flowing Software (Turku Centre for Biotechnology). The IC50 was calculated using GraphPad Prism 6.
(§2) Activity was tested using the hBU12 antibody, cAg-1, 1C1, HuMab-CD74-011, and an antibody against Antigen 2, designated hAg-2.

The target of assay [1] is T2, CD19 (UniProt P15391 20-556, limits assumed).
T2 sequence (looked up): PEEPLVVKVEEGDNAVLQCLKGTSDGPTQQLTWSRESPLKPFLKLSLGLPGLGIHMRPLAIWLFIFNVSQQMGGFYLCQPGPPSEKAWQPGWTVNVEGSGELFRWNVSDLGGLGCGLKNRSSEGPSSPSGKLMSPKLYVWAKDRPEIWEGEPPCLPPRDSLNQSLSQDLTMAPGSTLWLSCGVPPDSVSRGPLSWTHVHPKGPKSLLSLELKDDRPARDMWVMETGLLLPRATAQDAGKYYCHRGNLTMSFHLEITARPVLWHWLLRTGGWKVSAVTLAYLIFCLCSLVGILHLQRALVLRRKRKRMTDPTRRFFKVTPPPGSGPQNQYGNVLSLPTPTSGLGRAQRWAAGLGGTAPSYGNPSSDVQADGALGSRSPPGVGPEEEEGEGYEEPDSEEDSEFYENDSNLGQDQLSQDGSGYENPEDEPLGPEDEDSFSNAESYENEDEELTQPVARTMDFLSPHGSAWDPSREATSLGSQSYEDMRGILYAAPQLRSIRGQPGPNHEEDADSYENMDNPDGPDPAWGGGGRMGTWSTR
Kind of assay: cell-based or functional assay.

In assay [2] the target is T2, CD19. Kind of assay: FACS competition with labeled parent hBU12, Raji cells. The protocol: as §1
(§3) Four antibodies (hBU12 against CD19, anti-Antigen 1 antibody against Antigen 1 (cAg-1), 1C1 against EphA2 and HuMab CD74-011 against CD74) were tested using the coiled coil blocking domains. The antibody CD74 comprises a light chain (SEQ ID NO: 1) and a heavy chain (SEQ ID NO: 2). Sequences for A3B3, A4B4, CVel, antipO, and dHLX were N-terminally fused to the light and heavy chains of the antibodies. To test for binding, FACs-based competition assays were utilized to account for high concentrations of competitor necessary to displace the parent antibody and the results are listed in Tables 2-5. Other antibodies that can be conjugated to a coiled-coil peptide are SEQ ID NOs: 3-19. SEQ ID NO: 3 is the amino acid sequence of hBU12 heavy chain variable region, and SEQ ID NO: 4 is the amino acid sequence of hBU12 light chain variable region. […]

In assay [3] the target is CD19 (UniProt P15391). Nature of the assay: competition FACS, Raji cells; vs parent.
Assay [4] has as its target CD19 (UniProt P15391). Nature of the assay: competition FACS, Raji cells; unit and quantity not given.
For assay [5], the target named is CD19 (UniProt P15391). Nature of the assay: cell-based or functional assay.
Assay [6] has as its target T2, CD19. Kind of assay: FACS competition, Raji cells; fold vs unmasked hBU12ec. The protocol: as §1, §2
Assay [7] concerns the target T2, CD19. Nature of the assay: FACS competition, Raji cells; fold vs hBU12ec. The protocol: as §1, §3

B1: CVel HuMab-CD74-011 (antibody)
heavy: EACGASTSVDELQAEVDQLEDENYALKTKVAQLRKKVEKLGSIPVSLRSGQVQLVESGGGVVQPGRSLRLSCAASGFTFSSYGMHWVRQAPDKGLEWVAVIWYDGSNKYYADSVKGRFTISRDNSKNTLYLQMNSLRAEDTAVYYCARGGTLVRGAMYGTDVWGQGTTVTVSS
light: EACGASTTVAQLEEKVKTLRAENYELKSEVQRLEEQVAQLGSIPVSLRSGDIQMTQSPSSLSASVGDRVTITCRASQGISSWLAWYQQKPEKAPKSLIYAASSLQSGVPSRFSGSGSGTDFTLTISSLQPEDFATYYCQQYNSYPLTFGGGTKVEIK
notes: not restated for this antibody
As for B1, the “fold decrease in binding” value with CD74 stood at 26 fold.

B2: hBU12ec-1910(2) (antibody, V domains shown)
VH: QVQLQESGPGLVKPSQTLSLTCTVSGGSISTSGMGVGWIRQHPGKGLEWIGHIWWDDDKRYNPALKSRVTISVDTSKNQFSLKLSSVTAADTAVYYCARMELWSYYFDYWGQGTLVTVSS
VL: EIVLTQSPATLSLSPGERATLSCSASSSVSYMHWYQQKPGQAPRLLIYDTSKLASGIPARFSGSGSGTDFTLTISSLEPEDVAVYYCFQGSVYPFTFGQGTKLEIKR
modifications: PBD drug-linker on the engineered cysteine at position 239 of the heavy chain constant region
As to B2, in the assay with CD19 [1], the “Cytotoxicity Data IC50 (ng/mL), Ramos cells” value is 0.1 ng/mL.

B3: hBU12ec (antibody, V domains shown)
VH: QVQLQESGPGLVKPSQTLSLTCTVSGGSISTSGMGVGWIRQHPGKGLEWIGHIWWDDDKRYNPALKSRVTISVDTSKNQFSLKLSSVTAADTAVYYCARMELWSYYFDYWGQGTLVTVSS
VL: EIVLTQSPATLSLSPGERATLSCSASSSVSYMHWYQQKPGQAPRLLIYDTSKLASGIPARFSGSGSGTDFTLTISSLEPEDVAVYYCFQGSVYPFTFGQGTKLEIKR
notes: Anti-CD19 antibody; also called parent antibody
For the molecule B3, in the assay with CD19 [2], the IC50 amounted to 3.6 nM.

B4: Cvel-1910(2) (antibody)
VH: EACGASTSVDELQAEVDQLEDENYALKTKVAQLRKKVEKLGSIPVSLRSGQVQLQESGPGLVKPSQTLSLTCTVSGGSISTSGMGVGWIRQHPGKGLEWIGHIWWDDDKRYNPALKSRVTISVDTSKNQFSLKLSSVTAADTAVYYCARMELWSYYFDYWGQGTLVTVSS
VL: EACGASTTVAQLEEKVKTLRAENYELKSEVQRLEEQVAQLGSIPVSLRSGEIVLTQSPATLSLSPGERATLSCSASSSVSYMHWYQQKPGQAPRLLIYDTSKLASGIPARFSGSGSGTDFTLTISSLEPEDVAVYYCFQGSVYPFTFGQGTKLEIKR
modifications: PBD drug-linker on the engineered cysteine at position 239 of the heavy chain constant region
B4: the Binding Data (fold decrease per paragraph 159) with CD19 [3] was greater than 160 fold. For the same molecule, the Binding Data in the assay with CD19 [4] is greater than 600. In the assay with CD19 [5], this molecule had a Cytotoxicity Data Fold Change, Ramos cells of 1320 fold and a Cytotoxicity Data IC50 (ng/mL), Ramos cells of 100 ng/mL.

B5: Cvel hBU12ec (antibody)
VH: EACGASTSVDELQAEVDQLEDENYALKTKVAQLRKKVEKLGSIPVSLRSGQVQLQESGPGLVKPSQTLSLTCTVSGGSISTSGMGVGWIRQHPGKGLEWIGHIWWDDDKRYNPALKSRVTISVDTSKNQFSLKLSSVTAADTAVYYCARMELWSYYFDYWGQGTLVTVSS
VL: EACGASTTVAQLEEKVKTLRAENYELKSEVQRLEEQVAQLGSIPVSLRSGEIVLTQSPATLSLSPGERATLSCSASSSVSYMHWYQQKPGQAPRLLIYDTSKLASGIPARFSGSGSGTDFTLTISSLEPEDVAVYYCFQGSVYPFTFGQGTKLEIKR
notes: the linker/protease site is not restated for this antibody; S239C constant region
With B5, the “fold decrease in binding” value with CD19 [6] was greater than 300 fold. Moreover, the “Fold Change” value with CD19 [7] was greater than 300 fold.

Source of the values: patent US20190352428A1 (Seagen, published 2019).
